The values below come from publication doi:10.1101/2025.09.29.679184.

Assay [1] has as its target N-terminally Avi-tagged Lotus SYMRK kinase 4D (Lotus japonicus). In words: BLI.
Assay [2] has as its target N-terminally Avi-tagged Lotus SYMRK kinase 4A (Lotus japonicus). Briefly: BLI. In general terms: In BLI a coated tip is dipped into the sample, and binding shifts an interference pattern.

Turning to “Lotus japonicus Early Phosphorylated Protein 1a (EPP1a) WT, purified (natural protein)”, the KD1 (2:1 heterogenous ligand fit) is 452 nM in assay [1] and 2.2 µM in assay [2]. In addition, the KD2 (2:1 heterogenous ligand fit) in assay [1] was 1 µM; in assay [2], 6.4 µM.
